Key:
scArc-Vk(E5)-HA [1] = target: T1, scArc-Vk(E5)-HA (Phage P22 / human Vk); assay: plateau at 3-4 operators; conditions: tags: C-terminal Vk(E5) dAb fusion, chain copies: 2 scArc per operator (stated)
Protocol: (§1) Tubes from Strep Thermofast 96-well plates are coated by applying 2 µl of 0.05 mg/ml biotinylated rat anti-HA mAb (clone 3F10, Roche), 0.2 µl of 0.5 mg/ml biotinylated protein L (Pierce), 1 µl of biotinylated 1 mg/ml β-galactosidase or 0.1 µl of 5 mg/ml biotinylated BSA (Sigma) respectively in 50 µl aliquots of PBS and incubating for 3 hours at room temperature. The monoclonal high-affinity α-HA mAb 3F10 recognises the C-terminal HA tag, β-galactosidase and protein L can be expected to interact with the $V_\kappa$(E5) light chain domain, while BSA serves as the negative control. At the end of the incubation the coating solution is removed and the first blocking solution consisting of 150 µl of 10 ng/ml biotinylated BSA (Sigma) in PBS is added to the wells and incubated for 15 minutes. At the end of the incubation the wells are washed three times with 150 µl of PBS and blocked additionally for 30 min at room temperature with buffer C+.
(§2) 25 µl S30 in vitro translation reactions (EcoPro T7, Novagen) are assembled according to the manufacturer's instructions and supplemented with 1.5 µl of 1.7 mM PCR-amplified template in 0.1 mg/ml RNA and 0.75 µl of 100 mM oxidized glutathione. […]
(§3) The PCR amplification products are analysed by 1% agarose gel electrophoresis in TAE in the presence of ethidium bromide and imaged using GeneGeius Bio Imaging System (Syngene). […]

Vk(E5)-scArc-HA [2] = target: T2, Vk(E5)-scArc-HA (Phage P22 / human Vk); assay: recovery reaches plateau at 3-4 operators; conditions: tags: N-terminal Vk(E5) dAb fusion, C-terminal HA; chain copies: 2 scArc per operator (stated)
Protocol: as §1, §2, §3

[3] = target: scFv(31IJ1)-(KEAAA)6-scArc-HA (Phage P22 / human scFv?); assay: recovery improves with operator number; conditions: tags: N-terminal scFv fusion, C-terminal HA; chain copies: 2 scArc per operator (inferred)
Protocol: In the solution expression experiments 3 µl of 1.7 nM PCR-amplified pIE7aA, pIE7a2A, pIE7a3A, pIE7a4A, pIE7aA-scFv(31IJ1), pIE7a2A-scFv(31 Ul), pIE7a3A-scFv (31IJ1) or pIE7a4A-scFv(31IJ1) template in 0.2 mg/ml tRNA is added to 25 µl EcoPro T7 in vitro translation mix (Novagen), supplemented with 0.75 µl of 100 mM oxidized glutathione (Sigma) and 0.25 µl […] 3F10 αHA mAb (Roche). Each reactions is split into three 9 µl aliquots. Two of the three in vitro translation aliquots of pIE7aA-scFv(31IJ1), pIE7a2A-scFv(31IJ1), pIE7a3A-scFv(31IJ1) or pIE-7a4A-scFv(31IJ1) are immediately combined with the aliquots of pIE7aA, pIE7a2A, pIE7a3A or pIE7a4A expression reactions respectively, one before and the other after the four-hour incubation at 25° C.
During the translation reaction the streptavidin-coated PCR tubes, cut from Strep Thermofast 96-well plates (Abgene), are first incubated at room temperature for three hours with 50 µl of at least 40 nM biotinylated protein A (Sigma), protein L (Pierce) fluorescein (Molecular Probes) of BSA (Sigma) in PBS. The coating buffer is thereafter removed and any remaining free biotin-binding sites are blocked with a 15 min pulse of 50 µg/ml biotinylated BSA in PBS. The pre-coated wells are thereafter three times washed with PBS and then filled with 100 µl of binding buffer C+ (100 mM KCl, 20 mM Tris, 5 mM MgCl2, 0.05% Tween 20, 0.05 mM EDTA, 1% BSA).
Upon completion of the translation reaction the products are diluted in Buffer C+ and applied to the pre-coated and blocked PCR tubes, allowed to bind for 30 min at room temperature and washed 4 times with 150 µl of Buffer C+. The retained genetic elements are amplified with PCR using a nested set of primers AS79/AS80 and a 30-cycle PCR protocol 30X60C2M. In 30X60C2M protocol 50 µl PCR reactions contain 200 µM each of dATP dTTP dGTP dCTP (Amersham), 300 nM forward and reverse primers AS13+ AS19 and 1 U of SuperTaq DNA polymerase (HT Biotechnology) in 1× polymerase Buffer (HT Biotechnology). […]

scArc-Vk(E5)-HA [4] = target: T1, scArc-Vk(E5)-HA; assay: stable linkage even without anti-HA mAb; conditions: tags: C-terminal Vk(E5) dAb fusion, chain copies: 2 scArc per operator (stated)
Vk(E5)-scArc-HA [5] = target: T2, Vk(E5)-scArc-HA; assay: recovery increases with operator number; complex stabilised by 3.4 nM anti-HA mAb 3F10; conditions: tags: N-terminal Vk(E5) dAb fusion, C-terminal HA; chain copies: 2 scArc per operator (stated)

B1: genetic element with three Arc operators (dsDNA)
DNA 1: GATCTATGATAGAAGCACTCTACTATACTCATCACGAAACGGAGGATCTATGATAGAAGCACTCTACTATACTCATCACGAAACGGAGGATCTATGATAGAAGCACTCTACTAT
DNA 2: ATAGTAGAGTGCTTCTATCATAGATCCTCCGTTTCGTGATGAGTATAGTAGAGTGCTTCTATCATAGATCCTCCGTTTCGTGATGAGTATAGTAGAGTGCTTCTATCATAGATC
B1: binds (scArc-Vk(E5)-HA [1]); binds (Vk(E5)-scArc-HA [2]); binds [3].

B2: genetic element with two Arc operators (dsDNA)
DNA 1: GATCTATGATAGAAGCACTCTACTATACTCATCACGAAACGGAGGATCTATGATAGAAGCACTCTACTAT
DNA 2: ATAGTAGAGTGCTTCTATCATAGATCCTCCGTTTCGTGATGAGTATAGTAGAGTGCTTCTATCATAGATC
B2: binds [3]; binds (scArc-Vk(E5)-HA [4]); binds (Vk(E5)-scArc-HA [5]).

B3: genetic element with four Arc operators (dsDNA)
DNA 1: GATCTATGATAGAAGCACTCTACTATACTCATCACGAAACGGAGGATCTATGATAGAAGCACTCTACTATACTCATCACGAAACGGAGGATCTATGATAGAAGCACTCTACTATACTCATCACGAAACGGAGGATCTATGATAGAAGCACTCTACTAT
DNA 2: ATAGTAGAGTGCTTCTATCATAGATCCTCCGTTTCGTGATGAGTATAGTAGAGTGCTTCTATCATAGATCCTCCGTTTCGTGATGAGTATAGTAGAGTGCTTCTATCATAGATCCTCCGTTTCGTGATGAGTATAGTAGAGTGCTTCTATCATAGATC
B3: binds [3].

— patent publication US8084213, “Selection” (Domantis Limited)
